# Laboratory results: publication PMC6314547 (The Journal of Cell Biology, 2019)
# B1: FAM92A1 BAR domain (1–219 aa) (domain or fragment, UniProt A1XBS5 1-219, looked up)
# chain: MMRRTLENRNAQTKQLQTAVSNVEKHFGELCQIFAAYVRKTARLRDKADLLVNEINAYAATETPHLKLGLMNFADEFAKLQDYRQAEVERLEAKVVEPLKTYGTIVKMKRDDLKATLTARNREAKQLTQLERTRQRNPSDRHVISQAETELQRAAMDASRTSRHLEETINNFERQKMKDIKTIFSEFITIEMLFHGKALEVYTAAYQNIQNIDEDEDLE
# Target: the molecule itself
# Experiment: SEC-MALS
protein,measurement,value
B1,stoichiometry N,2
